Measurements taken from patent US6805861B2, “Immunotherapy using cytotoxic T lymphocytes (CTL)” (Imperial College Innovations Limited, priority 1996, dated 2004).
Like-named read-outs stand apart in the source and are kept apart here.

How the values were obtained:
[1] = CTL stimulation by mdm100 peptide in C57BL/6 mice; type: in vivo, mouse; settings: self-restricted repertoire
[2] = biological target: T1, H-2K^b class I molecules (Mus musculus, UniProt P01901); experiment: Binding of peptide to H-2K^b class I molecules
T1 sequence (P01901 22-369): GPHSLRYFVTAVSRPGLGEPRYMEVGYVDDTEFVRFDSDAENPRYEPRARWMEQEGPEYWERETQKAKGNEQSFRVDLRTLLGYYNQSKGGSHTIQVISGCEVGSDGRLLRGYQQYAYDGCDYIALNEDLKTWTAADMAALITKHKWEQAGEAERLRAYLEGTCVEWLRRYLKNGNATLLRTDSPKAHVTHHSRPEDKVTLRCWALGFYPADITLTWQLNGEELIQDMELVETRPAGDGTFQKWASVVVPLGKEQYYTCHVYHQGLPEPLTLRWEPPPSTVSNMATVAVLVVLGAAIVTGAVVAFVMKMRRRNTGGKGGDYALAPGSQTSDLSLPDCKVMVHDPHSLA
T1 sequence (P01887 21-119 partner): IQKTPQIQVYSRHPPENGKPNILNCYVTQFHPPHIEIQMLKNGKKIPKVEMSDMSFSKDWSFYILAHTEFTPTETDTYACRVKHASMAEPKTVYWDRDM
Protocol: Peptides: The mdm100 peptide corresponds to amino acid 100-107 (YAMIYRNL; SEQ ID No 1) of the murine mdm-2 protein. […] All peptides used in this study were synthesised by the central peptide synthesis laboratory of the Imperial Cancer Research Fund, London, using finoc chemistry. The quality of the peptides were assessed by HPLC analysis and the expected molecular weight was observed using MALDI mass-spectrometry. The peptides were dissolved in phosphate buffered saline (pH 7.4) to give a concentration of 2 mM and stored at −20° C.

binding to H-2K^b class I molecules [2]: bound efficiently
binding to H-2K^b class I molecules ([2]; listed as mdm100): efficiently bound
Sequence: YAMIYRNL [mdm100 peptide]
CTL stimulated by the peptide in C57BL/6 mice (H-2^b) [1]: only stimulated low avidity CTL
